Experimental data reported in patent publication US20250179187A1 (REJUVERON SENESCENCE THERAPEUTICS, published 2025).

T1: recombinant human PD-L2 (human PD-L2 antigen) (human, UniProt Q9BQ51 20-219, limits assumed)
T1 construct: The Biacore analyte and the ELISA antigen are only called human PD-L2 antigen / recombinant hPD-L2; Whole entry named; also called hPD-L2; recombinant hPD-L2
T1 sequence (looked up): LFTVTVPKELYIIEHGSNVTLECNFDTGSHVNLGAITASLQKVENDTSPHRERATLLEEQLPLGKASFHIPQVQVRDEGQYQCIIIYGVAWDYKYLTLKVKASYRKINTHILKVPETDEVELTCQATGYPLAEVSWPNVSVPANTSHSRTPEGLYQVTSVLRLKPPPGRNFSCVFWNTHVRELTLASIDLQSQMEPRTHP


Molecular target: T1, recombinant human PD-L2 (human PD-L2 …)
Experiment: SPR (Biacore 8K), single cycle kinetics, antibody in culture supernatant, human PD-L2 antigen
Description: Table 2: Single cycle kinetic parameters of chimeric (VH0/VK0) and humanized variants (tested as cell culture supernatants) binding to human PD-L2 antigen as determined using the Biacore 8K. As used herein, the term “KD” is intended to refer to the dissociation equilibrium constant of a particular antibody-antigen interaction, ka is the binding rate constant and kd is the dissociation rate constant. The binding affinity of antibodies of the disclosed invention may be measured or determined by standard antibody-antigen assays. The relative KD was calculated by dividing the KD of the humanized variant by that of the VH0/VK0 assayed in the same experiment.

Kd	Relative KD (KD of variant / KD of VH0/VK0)	koff	Binder
0.0379 nM	1.06	9.88e-05 s⁻¹	VH0/VK1 (antibody, V domains shown, hIgG1 backbone, CHO expressed) VH: QVQLQQSGAELVRPGTSVKVSCKASGYAFSNYFIEWVKQRPGQGLEWIGLNIPGSGGSNYAEKFKGKATLTADKSSSTAYMQLSSLTSEDSAVYFCARRRLPPDWYFDVWGTGTTVTVSS VL: DVVMTQSPLSLPVTLGQPASISCRSSQSLVHSDGNTYLHWYQQKPGQPPKLLIYKVSNRFSGVPDRFSGSGSGTDFTLKISRVEAEDVGVYFCSQSTHVPWTFGGGTKVEIK
0.0604 nM	1.69	0.000132 s⁻¹	VH3/VK2 (antibody, V domains shown, hIgG1 backbone, CHO expressed) VH: QVQLVQSGAEVKKPGSSVKVSCKASGYAFSNYFIEWVKQPPGKGLEWIGLNIPGSGGSNYAEKFKGRVTITADKSTSTAYMELSSLRSEDSAVYFCARRRLPPDWYFDVWGQGTTVTVSS VL: DVVMTQSPLSLPVTLGQPASISCRSSQSLVHSDGNTYLHWYQQKPGQPPKLLIYKVSNRFSGVPDRFSGSGSGTDFTLKISRVEAEDVGVYYCSQSTHVPWTFGGGTKVEIK
0.222 nM	6.2	0.000344 s⁻¹	VH7/VK3 (antibody, V domains shown, hIgG1 backbone, CHO expressed) VH: QVQLVQSGAELKKPGSSVKVSCKASGYAFSNYFIEWVKQPPGKGLEWIGLNIPGSGGSNYAEKFKGRATITADKSTSTAYMELSSLRSEDTAVYYCARRRLPPDWYFDVWGQGTTVTVSS VL: DVVMTQSPLSLPVTLGQPASISCRSSQSLVHSGGNTYLHWYQQKPGQPPKLLIYKVSNRFSGVPDRFSGSGSGTDFTLKISRVEAEDVGVYFCSQSTHVPWTFGGGTKVEIK
0.0475 nM	1.33	0.00011 s⁻¹	VH1/VK1 (antibody, V domains shown, hIgG1 backbone, CHO expressed) VH: QVQLVQSGAELKKPGSSVKVSCKASGYAFSNYFIEWVKQPPGKGLEWIGLNIPGSGGSNYAEKFKGRATITADKSTSTAYMELSSLTSEDSAVYFCARRRLPPDWYFDVWGQGTTVTVSS VL: DVVMTQSPLSLPVTLGQPASISCRSSQSLVHSDGNTYLHWYQQKPGQPPKLLIYKVSNRFSGVPDRFSGSGSGTDFTLKISRVEAEDVGVYFCSQSTHVPWTFGGGTKVEIK
0.0551 nM	1.54	0.000119 s⁻¹	VH2/VK1 (antibody, V domains shown, hIgG1 backbone, CHO expressed) VH: QVQLVQSGAEVKKPGSSVKVSCKASGYAFSNYFIEWVKQPPGKGLEWIGLNIPGSGGSNYAEKFKGRATITADKSTSTAYMELSSLRSEDSAVYFCARRRLPPDWYFDVWGQGTTVTVSS VL: DVVMTQSPLSLPVTLGQPASISCRSSQSLVHSDGNTYLHWYQQKPGQPPKLLIYKVSNRFSGVPDRFSGSGSGTDFTLKISRVEAEDVGVYFCSQSTHVPWTFGGGTKVEIK
0.0596 nM	1.66	0.000129 s⁻¹	VH4/VK2 (antibody, V domains shown, hIgG1 backbone, CHO expressed) VH: QVQLVQSGAEVKKPGSSVKVSCKASGYAFSNYFIEWVKQPPGKGLEWIGLNIPGSGGSNYAEKFKGRVTITADKSTSTAYMELSSLRSEDTAVYYCARRRLPPDWYFDVWGQGTTVTVSS VL: DVVMTQSPLSLPVTLGQPASISCRSSQSLVHSDGNTYLHWYQQKPGQPPKLLIYKVSNRFSGVPDRFSGSGSGTDFTLKISRVEAEDVGVYYCSQSTHVPWTFGGGTKVEIK
0.0487 nM	1.36	0.000116 s⁻¹	VH1/VK2 (antibody, V domains shown, hIgG1 backbone, CHO expressed) VH: QVQLVQSGAELKKPGSSVKVSCKASGYAFSNYFIEWVKQPPGKGLEWIGLNIPGSGGSNYAEKFKGRATITADKSTSTAYMELSSLTSEDSAVYFCARRRLPPDWYFDVWGQGTTVTVSS VL: DVVMTQSPLSLPVTLGQPASISCRSSQSLVHSDGNTYLHWYQQKPGQPPKLLIYKVSNRFSGVPDRFSGSGSGTDFTLKISRVEAEDVGVYYCSQSTHVPWTFGGGTKVEIK
0.267 nM	7.46	0.000414 s⁻¹	VH2/VK3 (antibody, V domains shown, hIgG1 backbone, CHO expressed) VH: QVQLVQSGAEVKKPGSSVKVSCKASGYAFSNYFIEWVKQPPGKGLEWIGLNIPGSGGSNYAEKFKGRATITADKSTSTAYMELSSLRSEDSAVYFCARRRLPPDWYFDVWGQGTTVTVSS VL: DVVMTQSPLSLPVTLGQPASISCRSSQSLVHSGGNTYLHWYQQKPGQPPKLLIYKVSNRFSGVPDRFSGSGSGTDFTLKISRVEAEDVGVYFCSQSTHVPWTFGGGTKVEIK
0.0586 nM	1.64	0.000125 s⁻¹	VH4/VK1 (antibody, V domains shown, hIgG1 backbone, CHO expressed) VH: QVQLVQSGAEVKKPGSSVKVSCKASGYAFSNYFIEWVKQPPGKGLEWIGLNIPGSGGSNYAEKFKGRVTITADKSTSTAYMELSSLRSEDTAVYYCARRRLPPDWYFDVWGQGTTVTVSS VL: DVVMTQSPLSLPVTLGQPASISCRSSQSLVHSDGNTYLHWYQQKPGQPPKLLIYKVSNRFSGVPDRFSGSGSGTDFTLKISRVEAEDVGVYFCSQSTHVPWTFGGGTKVEIK
0.053 nM	1.48	0.00012 s⁻¹	VH8/VK1 (antibody, V domains shown, hIgG1 backbone, CHO expressed) VH: QVQLVQSGAEVKKPGSSVKVSCKASGYAFSNYFIEWVKQPPGKGLEWIGLNIPGSGGSNYAEKFKGRATITADKSTSTAYMELSSLRSEDTAVYYCARRRLPPDWYFDVWGQGTTVTVSS VL: DVVMTQSPLSLPVTLGQPASISCRSSQSLVHSDGNTYLHWYQQKPGQPPKLLIYKVSNRFSGVPDRFSGSGSGTDFTLKISRVEAEDVGVYFCSQSTHVPWTFGGGTKVEIK
0.314 nM	8.77	0.000497 s⁻¹	VH3/VK3 (antibody, V domains shown, hIgG1 backbone, CHO expressed) VH: QVQLVQSGAEVKKPGSSVKVSCKASGYAFSNYFIEWVKQPPGKGLEWIGLNIPGSGGSNYAEKFKGRVTITADKSTSTAYMELSSLRSEDSAVYFCARRRLPPDWYFDVWGQGTTVTVSS VL: DVVMTQSPLSLPVTLGQPASISCRSSQSLVHSGGNTYLHWYQQKPGQPPKLLIYKVSNRFSGVPDRFSGSGSGTDFTLKISRVEAEDVGVYFCSQSTHVPWTFGGGTKVEIK
0.223 nM	6.23	0.000365 s⁻¹	VH1/VK3 (antibody, V domains shown, hIgG1 backbone, CHO expressed) VH: QVQLVQSGAELKKPGSSVKVSCKASGYAFSNYFIEWVKQPPGKGLEWIGLNIPGSGGSNYAEKFKGRATITADKSTSTAYMELSSLTSEDSAVYFCARRRLPPDWYFDVWGQGTTVTVSS VL: DVVMTQSPLSLPVTLGQPASISCRSSQSLVHSGGNTYLHWYQQKPGQPPKLLIYKVSNRFSGVPDRFSGSGSGTDFTLKISRVEAEDVGVYFCSQSTHVPWTFGGGTKVEIK
0.0606 nM	1.69	0.000128 s⁻¹	VH3/VK1 (antibody, V domains shown, hIgG1 backbone, CHO expressed) VH: QVQLVQSGAEVKKPGSSVKVSCKASGYAFSNYFIEWVKQPPGKGLEWIGLNIPGSGGSNYAEKFKGRVTITADKSTSTAYMELSSLRSEDSAVYFCARRRLPPDWYFDVWGQGTTVTVSS VL: DVVMTQSPLSLPVTLGQPASISCRSSQSLVHSDGNTYLHWYQQKPGQPPKLLIYKVSNRFSGVPDRFSGSGSGTDFTLKISRVEAEDVGVYFCSQSTHVPWTFGGGTKVEIK
0.0555 nM	1.55	0.000122 s⁻¹	VH2/VK2 (antibody, V domains shown, hIgG1 backbone, CHO expressed) VH: QVQLVQSGAEVKKPGSSVKVSCKASGYAFSNYFIEWVKQPPGKGLEWIGLNIPGSGGSNYAEKFKGRATITADKSTSTAYMELSSLRSEDSAVYFCARRRLPPDWYFDVWGQGTTVTVSS VL: DVVMTQSPLSLPVTLGQPASISCRSSQSLVHSDGNTYLHWYQQKPGQPPKLLIYKVSNRFSGVPDRFSGSGSGTDFTLKISRVEAEDVGVYYCSQSTHVPWTFGGGTKVEIK
0.0499 nM	1.39	0.000113 s⁻¹	VH7/VK1 (antibody, V domains shown, hIgG1 backbone, CHO expressed) VH: QVQLVQSGAELKKPGSSVKVSCKASGYAFSNYFIEWVKQPPGKGLEWIGLNIPGSGGSNYAEKFKGRATITADKSTSTAYMELSSLRSEDTAVYYCARRRLPPDWYFDVWGQGTTVTVSS VL: DVVMTQSPLSLPVTLGQPASISCRSSQSLVHSDGNTYLHWYQQKPGQPPKLLIYKVSNRFSGVPDRFSGSGSGTDFTLKISRVEAEDVGVYFCSQSTHVPWTFGGGTKVEIK
0.287 nM	8.02	0.000466 s⁻¹	VH4/VK3 (antibody, V domains shown, hIgG1 backbone, CHO expressed) VH: QVQLVQSGAEVKKPGSSVKVSCKASGYAFSNYFIEWVKQPPGKGLEWIGLNIPGSGGSNYAEKFKGRVTITADKSTSTAYMELSSLRSEDTAVYYCARRRLPPDWYFDVWGQGTTVTVSS VL: DVVMTQSPLSLPVTLGQPASISCRSSQSLVHSGGNTYLHWYQQKPGQPPKLLIYKVSNRFSGVPDRFSGSGSGTDFTLKISRVEAEDVGVYFCSQSTHVPWTFGGGTKVEIK
0.0427 nM	1.19	0.000109 s⁻¹	VH1/VK0 (antibody, V domains shown, hIgG1 backbone, CHO expressed) VH: QVQLVQSGAELKKPGSSVKVSCKASGYAFSNYFIEWVKQPPGKGLEWIGLNIPGSGGSNYAEKFKGRATITADKSTSTAYMELSSLTSEDSAVYFCARRRLPPDWYFDVWGQGTTVTVSS VL: DVVMTQTPLSLPVSLGDQASISCRSSQSLVHSDGNTYLHWYLQKPGQSPKLLIYKVSNRFSGVPDRFSGSGSGTDFTLKISRVEAEDLGVYFCSQSTHVPWTFGGGTKLEIK
